Experimental data from publication PMC6509359 (Molecular Cell, 2019).

Target: the molecule itself
Test: SEC-MALS; 100 μL of 1-2 mg/mL protein on Superdex 200 10/300, 0.5 mL/min, PBS + 2 mM DTT

Protein | stoichiometry N
Human USP28 (1-703) (domain or fragment, UniProt Q96RU2 1-703, looked up, USP28, human, residues 1-703; source: E. coli Rosetta2(DE3)pLacI, purified (HisTrap, 3C protease, Resource Q, size exclusion)) MTAELQQDDAAGAADGHGSSCQMLLNQLREITGIQDPSFLHEALKASNGDITQAVSLLTDERVKEPSQDTVATEPSEVEGSAANKEVLAKVIDLTHDNKDDLQAAIALSLLESPKIQADGRDLNRMHEATSAETKRSKRKRCEVWGENPNPNDWRRVDGWPVGLKNVGNTCWFSAVIQSLFQLPEFRRLVLSYSLPQNVLENCRSHTEKRNIMFMQELQYLFALMMGSNRKFVDPSAALDLLKGAFRSSEEQQQDVSEFTHKLLDWLEDAFQLAVNVNSPRNKSENPMVQLFYGTFLTEGVREGKPFCNNETFGQYPLQVNGYRNLDECLEGAMVEGDVELLPSDHSVKYGQERWFTKLPPVLTFELSRFEFNQSLGQPEKIHNKLEFPQIIYMDRYMYRSKELIRNKRECIRKLKEEIKILQQKLERYVKYGSGPARFPLPDMLKYVIEFASTKPASESCPPESDTHMTLPLSSVHCSVSDQTSKESTSTESSSQDVESTFSSPEDSLPKSKPLTSSRSSMEMPSQPAPRTVTDEEINFVKTCLQRWRSEIEQDIQDLKTCIASTTQTIEQMYCDPLLRQVPYRLHAVLVHEGQANAGHYWAYIYNQPRQSWLKYNDISVTESSWEEVERDSYGGLRNVSAYCLMYINDKLPYFNAEAAPTESDQMSEVEALSVELKHYIQEDNWRFEQEVEEWEEEQSCKI | 2
Human USP28 (1-1077) (enzyme, UniProt Q96RU2 1-1077, looked up, USP28, human, residues 1-1077 (1,077 aa); also called full-length USP28; source: E. coli Rosetta2(DE3)pLacI, purified (HisTrap, 3C protease, Resource Q, size exclusion)) MTAELQQDDAAGAADGHGSSCQMLLNQLREITGIQDPSFLHEALKASNGDITQAVSLLTDERVKEPSQDTVATEPSEVEGSAANKEVLAKVIDLTHDNKDDLQAAIALSLLESPKIQADGRDLNRMHEATSAETKRSKRKRCEVWGENPNPNDWRRVDGWPVGLKNVGNTCWFSAVIQSLFQLPEFRRLVLSYSLPQNVLENCRSHTEKRNIMFMQELQYLFALMMGSNRKFVDPSAALDLLKGAFRSSEEQQQDVSEFTHKLLDWLEDAFQLAVNVNSPRNKSENPMVQLFYGTFLTEGVREGKPFCNNETFGQYPLQVNGYRNLDECLEGAMVEGDVELLPSDHSVKYGQERWFTKLPPVLTFELSRFEFNQSLGQPEKIHNKLEFPQIIYMDRYMYRSKELIRNKRECIRKLKEEIKILQQKLERYVKYGSGPARFPLPDMLKYVIEFASTKPASESCPPESDTHMTLPLSSVHCSVSDQTSKESTSTESSSQDVESTFSSPEDSLPKSKPLTSSRSSMEMPSQPAPRTVTDEEINFVKTCLQRWRSEIEQDIQDLKTCIASTTQTIEQMYCDPLLRQVPYRLHAVLVHEGQANAGHYWAYIYNQPRQSWLKYNDISVTESSWEEVERDSYGGLRNVSAYCLMYINDKLPYFNAEAAPTESDQMSEVEALSVELKHYIQEDNWRFEQEVEEWEEEQSCKIPQMESSTNSSSQDYSTSQEPSVASSHGVRCLSSEHAVIVKEQTAQAIANTARAYEKSGVEAALSEVMLSPAMQGVILAIAKARQTFDRDGSEAGLIKAFHEEYSRLYQLAKETPTSHSDPRLQHVLVYFFQNEAPKRVVERTLLEQFADKNLSYDERSISIMKVAQAKLKEIGPDDMNMEEYKKWHEDYSLFRKVSVYLLTGLELYQKGKYQEALSYLVYAYQSNAALLMKGPRRGVKESVIALYRRKCLLELNAKAASLFETNDDHSVTEGINVMNELIIPCIHLIINNDISKDDLDAIEVMRNHWCSYLGQDIAENLQLCLGEFLPRLLDPSAEIIVLKEPPTIRPNSPYDLCSRFAAVMESIQGVSTVTVK | 2
Human USP28 (149-703) L415E I419E (domain or fragment, UniProt Q96RU2 149-703, looked up, also called variant with the insertion-destabilizing mutation; source: E. coli Rosetta2(DE3)pLacI, purified (HisTrap, 3C protease, Resource Q, size exclusion)) PNPNDWRRVDGWPVGLKNVGNTCWFSAVIQSLFQLPEFRRLVLSYSLPQNVLENCRSHTEKRNIMFMQELQYLFALMMGSNRKFVDPSAALDLLKGAFRSSEEQQQDVSEFTHKLLDWLEDAFQLAVNVNSPRNKSENPMVQLFYGTFLTEGVREGKPFCNNETFGQYPLQVNGYRNLDECLEGAMVEGDVELLPSDHSVKYGQERWFTKLPPVLTFELSRFEFNQSLGQPEKIHNKLEFPQIIYMDRYMYRSKELIRNKRECIRKEKEEEKILQQKLERYVKYGSGPARFPLPDMLKYVIEFASTKPASESCPPESDTHMTLPLSSVHCSVSDQTSKESTSTESSSQDVESTFSSPEDSLPKSKPLTSSRSSMEMPSQPAPRTVTDEEINFVKTCLQRWRSEIEQDIQDLKTCIASTTQTIEQMYCDPLLRQVPYRLHAVLVHEGQANAGHYWAYIYNQPRQSWLKYNDISVTESSWEEVERDSYGGLRNVSAYCLMYINDKLPYFNAEAAPTESDQMSEVEALSVELKHYIQEDNWRFEQEVEEWEEEQSCKI | 2
